The assay addresses T1, purified active human caspase-6 (human, UniProt P55212 24-179; P55212 194-293, limits assumed).
T1 sequence (looked up) 1: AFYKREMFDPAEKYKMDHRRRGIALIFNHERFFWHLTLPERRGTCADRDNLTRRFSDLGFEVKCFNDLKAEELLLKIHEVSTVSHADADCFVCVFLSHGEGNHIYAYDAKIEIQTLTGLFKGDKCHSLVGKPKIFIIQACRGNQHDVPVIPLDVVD
T1 sequence (looked up) 2: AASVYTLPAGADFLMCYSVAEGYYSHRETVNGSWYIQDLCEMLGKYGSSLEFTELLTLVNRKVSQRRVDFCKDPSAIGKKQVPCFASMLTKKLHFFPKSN
As to the kind of experiment: cell-based or functional assay.

As to GRKKRRQRRRPPQSSEIVLDGTDN [ED11], the “Km of Michaelis-Menten curve, Caspase-Glo 6 assay with Z-VEID-aminoluciferin, 10 uM ED11” value was determined as 3.3 fold.
